System: mice exposed to bilateral whole-body irradiation
Assay: Prophylactic efficacy, 180-day survival after whole-body irradiation
Type: in vivo
Conditions: single subcutaneous injection 0.3 mg/kg 24 hours after 9.2 Gy whole-body irradiation
Protocol: In another study, selected samples of Example 3 were each orally administered at 200 mg Genistein/kg twice per day to groups of mice for 6 consecutive days. A separate vehicle control and genistein group was included for each sample formulation. The mice were then exposed to bilateral whole-body irradiation at a dose of 9.2 Gy at 0.6 Gy/min and the 180-day survival rate was observed. As additional controls, an injectable suspension (200 mg Genistein/kg) and corresponding vehicle were also administered to groups of mice via intramuscular injection 24 hours prior to exposure to bilateral whole-body irradiation at a dose of 9.2 Gy at 0.6 Gy/min. A separate group of mice was also administered a single subcutaneous injection of Neulasta® (0.3 mg/kg), an FDA-approved radiation treatment drug, 24 hours after exposure to bilateral whole-body irradiation at a dose of 9.2 Gy at 0.6 Gy/min. The results of this study are shown in Table 5 as percentage of surviving animals, and the number of surviving animals compared to the total number of animals in the study and depicted in FIG. 3.

B1: Neulasta ®: an FDA-approved radiation treatment drug, single subcutaneous injection (protein, UniProt P09919 31-207, looked up)
Granulocyte …: TPLGPASSLPQSFLLKCLEQVRKIQGDGAALQEKLVSECATYKLCHPEELVLLGHSLGIPWAPLSSCPSQALQLAGCLSQLHSGLFLYQGLLQALEGISPELGPTLDTLQLDVADFATTIWQQMEELGMAPALQPTQGAMPAFASAFQRRAGGVLVASHLQSFLEVSYRVLRHLAQP
modifications: pegfilgrastim; PEG, N-terminal Met
notes: an FDA-approved radiation treatment drug, single subcutaneous injection
- 180-Day Survival: 56% (9/16)
